Experimental data published in paper PMC9941469.

Biological target: phosphorylated Smad5 (pSmad5), mouse (UniProt P97454)
Test: Co-Immunoprecipitation
Settings: parent: est. 100; read off a plot

Sequence of UniProt P97454 (P97454 whole entry): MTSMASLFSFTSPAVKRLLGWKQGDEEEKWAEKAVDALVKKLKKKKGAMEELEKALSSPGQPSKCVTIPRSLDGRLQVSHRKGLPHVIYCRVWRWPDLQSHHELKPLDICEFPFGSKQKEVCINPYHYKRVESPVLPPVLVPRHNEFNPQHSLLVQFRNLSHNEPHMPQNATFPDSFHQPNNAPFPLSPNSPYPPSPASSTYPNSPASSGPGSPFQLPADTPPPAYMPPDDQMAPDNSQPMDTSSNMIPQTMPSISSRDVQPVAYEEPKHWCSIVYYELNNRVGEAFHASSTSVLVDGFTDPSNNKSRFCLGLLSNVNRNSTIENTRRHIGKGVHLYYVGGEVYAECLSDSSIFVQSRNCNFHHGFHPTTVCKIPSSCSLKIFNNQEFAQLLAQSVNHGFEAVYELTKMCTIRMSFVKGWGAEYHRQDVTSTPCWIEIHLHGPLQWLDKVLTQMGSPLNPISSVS

Hoxd13 (homeobox D13), wild type, mouse (from UniProt P70217) R306L
percent of parent: 70 % of WT
